# Molecular target: purified 206 kDa rFn (recombinant fibronectin) (UniProt P02751)
# Experiment: SPR; Biacore T200, 25°C; rFn immobilised on CM5 chip at 8000 RU; rRlpA (0.016-0.500 μM) injected at 30 μl/min in 10 mM Hepes pH 7.4, 150 mM NaCl, 3 mM EDTA, 0.05% P20; 1:1 Langmuir model
# Chain of purified 206 kDa rFn (recombinant fibronectin) (P02751 32-2477): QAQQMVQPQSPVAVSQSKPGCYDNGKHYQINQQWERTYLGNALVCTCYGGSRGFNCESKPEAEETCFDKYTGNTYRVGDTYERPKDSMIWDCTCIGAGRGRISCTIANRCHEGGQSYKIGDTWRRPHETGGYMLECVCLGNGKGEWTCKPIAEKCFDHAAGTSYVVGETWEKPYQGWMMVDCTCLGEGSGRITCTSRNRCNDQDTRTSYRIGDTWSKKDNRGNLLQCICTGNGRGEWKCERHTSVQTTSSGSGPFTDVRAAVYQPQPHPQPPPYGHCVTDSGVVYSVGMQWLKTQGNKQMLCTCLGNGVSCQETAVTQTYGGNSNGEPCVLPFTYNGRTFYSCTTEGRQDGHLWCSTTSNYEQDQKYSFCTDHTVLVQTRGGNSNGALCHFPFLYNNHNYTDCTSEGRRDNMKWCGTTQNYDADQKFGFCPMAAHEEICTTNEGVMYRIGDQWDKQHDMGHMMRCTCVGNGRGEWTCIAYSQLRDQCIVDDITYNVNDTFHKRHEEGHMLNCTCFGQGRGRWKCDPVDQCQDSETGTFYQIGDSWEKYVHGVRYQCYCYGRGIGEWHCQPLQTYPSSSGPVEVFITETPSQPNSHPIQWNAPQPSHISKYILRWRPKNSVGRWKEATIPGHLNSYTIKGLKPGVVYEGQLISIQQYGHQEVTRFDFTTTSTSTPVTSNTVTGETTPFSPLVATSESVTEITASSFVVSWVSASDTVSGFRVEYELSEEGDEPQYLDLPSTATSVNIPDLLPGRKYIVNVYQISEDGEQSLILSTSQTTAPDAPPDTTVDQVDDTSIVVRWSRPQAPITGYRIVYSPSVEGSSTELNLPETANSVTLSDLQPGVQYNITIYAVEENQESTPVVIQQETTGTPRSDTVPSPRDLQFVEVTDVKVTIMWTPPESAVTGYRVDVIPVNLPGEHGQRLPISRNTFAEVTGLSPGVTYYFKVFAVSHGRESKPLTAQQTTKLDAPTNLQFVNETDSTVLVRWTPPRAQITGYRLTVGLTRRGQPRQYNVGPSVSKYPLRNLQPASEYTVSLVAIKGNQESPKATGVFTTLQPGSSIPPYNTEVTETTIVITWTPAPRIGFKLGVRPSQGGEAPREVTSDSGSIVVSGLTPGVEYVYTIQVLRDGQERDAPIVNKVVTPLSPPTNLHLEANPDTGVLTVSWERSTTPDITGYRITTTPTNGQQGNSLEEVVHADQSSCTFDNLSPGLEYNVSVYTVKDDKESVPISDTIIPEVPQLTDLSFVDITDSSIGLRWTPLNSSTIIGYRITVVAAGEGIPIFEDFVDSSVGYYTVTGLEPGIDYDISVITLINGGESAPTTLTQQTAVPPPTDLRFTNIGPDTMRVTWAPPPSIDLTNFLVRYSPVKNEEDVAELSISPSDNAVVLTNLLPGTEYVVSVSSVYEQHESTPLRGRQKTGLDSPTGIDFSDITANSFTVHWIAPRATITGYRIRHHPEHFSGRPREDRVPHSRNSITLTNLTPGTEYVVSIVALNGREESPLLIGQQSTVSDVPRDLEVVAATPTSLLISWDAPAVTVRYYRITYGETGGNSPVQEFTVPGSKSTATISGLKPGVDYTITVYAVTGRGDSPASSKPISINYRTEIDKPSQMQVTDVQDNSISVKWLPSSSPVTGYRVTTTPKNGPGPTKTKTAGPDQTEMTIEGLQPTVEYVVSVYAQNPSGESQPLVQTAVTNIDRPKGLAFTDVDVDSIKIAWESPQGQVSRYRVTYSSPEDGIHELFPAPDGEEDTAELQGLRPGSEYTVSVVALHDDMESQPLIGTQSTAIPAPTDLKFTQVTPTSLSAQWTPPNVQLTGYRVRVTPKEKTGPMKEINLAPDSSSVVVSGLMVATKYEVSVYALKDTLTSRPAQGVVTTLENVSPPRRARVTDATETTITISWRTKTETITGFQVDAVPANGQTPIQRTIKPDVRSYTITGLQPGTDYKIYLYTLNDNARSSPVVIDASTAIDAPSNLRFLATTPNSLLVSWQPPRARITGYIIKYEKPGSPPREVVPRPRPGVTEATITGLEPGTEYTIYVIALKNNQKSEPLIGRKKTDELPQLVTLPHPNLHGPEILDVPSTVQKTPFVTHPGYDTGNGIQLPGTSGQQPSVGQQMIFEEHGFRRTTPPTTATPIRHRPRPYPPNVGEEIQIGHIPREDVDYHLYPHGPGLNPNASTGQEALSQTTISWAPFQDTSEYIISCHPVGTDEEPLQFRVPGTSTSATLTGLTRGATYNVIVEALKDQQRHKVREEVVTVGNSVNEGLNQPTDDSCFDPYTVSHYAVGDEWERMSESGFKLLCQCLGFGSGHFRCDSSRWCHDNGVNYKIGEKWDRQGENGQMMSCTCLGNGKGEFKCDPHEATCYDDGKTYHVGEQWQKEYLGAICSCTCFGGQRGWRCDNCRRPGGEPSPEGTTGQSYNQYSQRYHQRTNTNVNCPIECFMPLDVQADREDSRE
substance,measurement,value
GST-tagged RlpA recombinant protein (rare lipoprotein A of Glaesserella parasuis serotype 4) (natural protein; other documents disagree on this pair),Kd,1.6 nM
